What all share (test): SPR
For orientation: In SPR one partner is held on a chip, and binding of the other changes the refractive index at the surface.

The target of experiment [1] is T1, Dpr11 (Defective proboscis extension response 11), extracellular region, Q8MRE6.
T1 chain: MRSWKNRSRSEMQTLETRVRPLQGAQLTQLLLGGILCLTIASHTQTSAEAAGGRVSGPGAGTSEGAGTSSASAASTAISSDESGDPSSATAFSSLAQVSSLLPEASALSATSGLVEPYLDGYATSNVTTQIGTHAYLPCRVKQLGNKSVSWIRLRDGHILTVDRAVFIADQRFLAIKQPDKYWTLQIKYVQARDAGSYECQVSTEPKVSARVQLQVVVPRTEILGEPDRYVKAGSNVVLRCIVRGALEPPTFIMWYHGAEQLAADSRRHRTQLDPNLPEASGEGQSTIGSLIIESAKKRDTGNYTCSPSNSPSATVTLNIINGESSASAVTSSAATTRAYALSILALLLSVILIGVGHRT
To be noted: chain shown with the change; 25 °C; 10 mM Tris-HCl, pH 7.2, 150 mM NaCl, 1 mM EDTA, 1 mg mL−1 BSA, 0.01% (v/v) Tween-20; analyte 81 to 0.012 μM, three-fold dilution series.

For experiment [2], the target named is T2, DIP-γ (Dpr Interacting Protein gamma), extracellular region, Q9VAR6.
T2 chain: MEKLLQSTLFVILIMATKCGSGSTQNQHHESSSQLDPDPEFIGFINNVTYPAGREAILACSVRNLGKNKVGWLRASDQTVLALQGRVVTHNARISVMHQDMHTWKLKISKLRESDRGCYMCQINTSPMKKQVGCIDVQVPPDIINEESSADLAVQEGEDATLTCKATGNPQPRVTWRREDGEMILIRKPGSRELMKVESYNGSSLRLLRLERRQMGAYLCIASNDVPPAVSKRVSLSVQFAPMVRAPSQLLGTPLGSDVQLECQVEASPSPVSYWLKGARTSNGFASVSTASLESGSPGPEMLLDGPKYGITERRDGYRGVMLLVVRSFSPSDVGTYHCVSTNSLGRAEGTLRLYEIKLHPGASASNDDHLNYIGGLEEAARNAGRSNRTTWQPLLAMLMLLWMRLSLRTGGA
To be noted: chain shown with the change; 25 °C; 10 mM Tris-HCl, pH 7.2, 150 mM NaCl, 1 mM EDTA, 1 mg mL−1 BSA, 0.01% (v/v) Tween-20; analyte 81 to 0.012 μM, three-fold dilution series.

In experiment [3] the target is T3, DIP-α (Dpr Interacting Protein alpha), extracellular region, Q9W4R3.
T3 chain: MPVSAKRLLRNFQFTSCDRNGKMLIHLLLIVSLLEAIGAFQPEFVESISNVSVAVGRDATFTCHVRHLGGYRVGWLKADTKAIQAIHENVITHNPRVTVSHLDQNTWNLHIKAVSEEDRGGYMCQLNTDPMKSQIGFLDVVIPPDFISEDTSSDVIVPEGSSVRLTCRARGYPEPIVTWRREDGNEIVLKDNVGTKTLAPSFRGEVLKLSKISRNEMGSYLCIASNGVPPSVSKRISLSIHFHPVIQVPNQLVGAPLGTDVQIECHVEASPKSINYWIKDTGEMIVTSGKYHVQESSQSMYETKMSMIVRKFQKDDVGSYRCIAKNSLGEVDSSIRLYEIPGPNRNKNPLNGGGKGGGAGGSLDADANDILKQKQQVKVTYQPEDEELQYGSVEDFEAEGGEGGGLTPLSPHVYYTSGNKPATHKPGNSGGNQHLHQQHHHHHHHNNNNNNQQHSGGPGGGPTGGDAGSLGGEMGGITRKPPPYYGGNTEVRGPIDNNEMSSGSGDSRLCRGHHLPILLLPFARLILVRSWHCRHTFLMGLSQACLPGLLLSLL
To be noted: chain shown with the change; 25 °C; 10 mM Tris-HCl, pH 7.2, 150 mM NaCl, 1 mM EDTA, 1 mg mL−1 BSA, 0.01% (v/v) Tween-20; analyte 81 to 0.012 μM, three-fold dilution series; parent: 0.0 kcal/mol.

Where a chain is given by its changes, count along the chain named. Names and notes keep the numbering of the source.

B1: DIP-γ (Dpr Interacting Protein gamma), extracellular region, Q9VAR6 D77T (protein)
chain: T2 chain with D77T
The molecule B1 returned a ddG in experiment [1] of 0.9 kcal/mol.

B2: Dpr11 (Defective proboscis extension response 11), extracellular region, Q8MRE6 K207V (protein)
chain: T1 chain with K207V
The molecule B2 came in with a ddG in experiment [2] of 0.6 kcal/mol.

B3: Dpr11 (Defective proboscis extension response 11), extracellular region, Q8MRE6 K207V; E205Q; G157L (protein)
chain: T1 chain with G157L, E205Q, K207V
Consider B3, for which the ddG in experiment [3] is under -2 kcal/mol.

B4: Dpr11 (Defective proboscis extension response 11), extracellular region, Q8MRE6 E205Q; K207V (protein)
chain: T1 chain with E205Q, K207V
In turn, B4 displayed a ddG in experiment [2] of 1.7 kcal/mol.

Source of the values: article PMC7195491.
